Results: publication PMC12077092, “A novel micronemal protein MP38 is involved in the invasion of merozoites into erythrocytes” (mBio, 2025)
Where “and” joins values, the source holds several entries; their conditions need not be identical. Identical values can stand only once.

Legend:
[1] = biological target: Pv41-Fc (PVX_000995, ectodomain E22-E384, human IgG1 Fc fusion) (Plasmodium vivax) (UniProt A5KAP6); assay: BLI; Gator system, anti-human IgG Fc (HFC) probes; Fc-tagged protein immobilised (10 µM, 120 s); His-tagged protein in serial dilution (1.5 to 100 µM by the methods; 1.5625-100 nM in the key of Fig. S3C), association 300 s, dissociation 600 s in PBS; 1:1 global fit; two experiments with different batches of protein
[2] = biological target: Pv41 full-length ectodomain, His-tagged (Plasmodium vivax); assay: native gel or EMSA; blue native PAGE, 4%-16%, purified His-tagged recombinant protein, Coomassie stain
[3] = biological target: Pv12 full-length ectodomain, human IgG1-Fc-tagged (Plasmodium vivax); assay: BLI; Gator system, anti-human IgG Fc (HFC) probes; Fc-tagged protein immobilised (10 uM, 120 s); His-tagged protein 1.5 to 100 uM, 300 s association, 600 s dissociation in PBS; 1:1 global fit
[4] = biological target: Pv12 full-length ectodomain, His-tagged (Plasmodium vivax); assay: native gel or EMSA; blue native PAGE, 4%-16%, purified His-tagged recombinant protein, Coomassie stain
[5] = biological target: Pv41 full-length ectodomain, human IgG1-Fc-tagged (Plasmodium vivax); assay: BLI; Gator system, anti-human IgG Fc (HFC) probes; Fc-tagged protein immobilised (10 uM, 120 s); His-tagged protein 1.5 to 100 uM, 300 s association, 600 s dissociation in PBS; 1:1 global fit
[6] = biological target: Pv12-Fc (PVX_113775, ectodomain F24-A339, human IgG1 Fc fusion) (Plasmodium vivax) (UniProt A5K1W7); assay: BLI; Gator system, anti-human IgG Fc (HFC) probes; Fc-tagged protein immobilised (10 µM, 120 s); His-tagged protein in serial dilution (1.5 to 100 µM by the methods; 1.5625-100 nM in the key of Fig. S3C), association 300 s, dissociation 600 s in PBS; 1:1 global fit; two experiments with different batches of protein
[7] = biological target: Pk12-Fc (PKNH_1137300, ectodomain F24-S344, human IgG1 Fc fusion) (Plasmodium knowlesi); assay: as above
[8] = biological target: T1, PvDBP-RII (194-521 aa.)-8His (Plasmodium vivax, UniProt P22290 194-521); assay: as above; settings: both partners purified
T1 construct: also called PvDBPII-His; PvDBP-RII-His; source: HEK293-EBNA1 cells, transiently transfected, purified from culture supernatant (Ni-NTA); not shown: 8xHis, C-terminal, kept

[9] = biological target: T2, P. vivax Duffy-binding protein region II, His-tagged (194-521 aa) (Plasmodium vivax, UniProt P22290 194-521); assay: BLI; Gator system, anti-human IgG Fc (HFC) probes; Fc-tagged protein immobilised (10 uM, 120 s); His-tagged protein 1.5 to 100 uM, 300 s association, 600 s dissociation in PBS; 1:1 global fit; settings: both partners purified
T2 construct: also called PvDBPII-His; PvDBP-RII-His; source: HEK293-EBNA1 (HEK293E), transiently transfected, purified from culture supernatant (Ni-NTA); not shown: 8xHis, C-terminal, kept

Pv12-8His (PVX_113775, ectodomain F24-A339) (from UniProt A5K1W7 24-339) (domain or fragment)
Kd [1]: 0.555 nM and 0.512 nM
koff [1]: 0.000174 s⁻¹ and 0.000156 s⁻¹
kon [1]: 314000 M⁻¹ s⁻¹ and 305000 M⁻¹ s⁻¹

Pv41 full-length ectodomain, His-tagged (domain or fragment)
stoichiometry N [2]: 2
Kd [3]: 14.2 nM

PvMP38 (PVX_110945), full-length ectodomain, His-tagged (domain or fragment)
Kd [3]: 2.46 nM

Pk12-8His (PKNH_1137300, ectodomain F24-S344) (domain or fragment)
Kd [1]: 184 nM and 160 nM
koff [1]: 0.0485 s⁻¹ and 0.0454 s⁻¹
kon [1]: 263000 M⁻¹ s⁻¹ and 284000 M⁻¹ s⁻¹

Pv12 full-length ectodomain, His-tagged (domain or fragment)
stoichiometry N [4]: 2
Kd [5]: 0.53 nM

Pv41-8His (PVX_000995, ectodomain E22-E384) (from UniProt A5KAP6 22-384) (domain or fragment)
Kd [6]: 12.2 nM and 16.1 nM
koff [6]: 0.000662 s⁻¹ and 0.000803 s⁻¹
kon [6]: 54300 M⁻¹ s⁻¹ and 50000 M⁻¹ s⁻¹
Kd [7]: 19 nM and 11.4 nM

PvMP38-8His (PVX_110945, full-length ectodomain D28-K343) (domain or fragment)
Kd [6]: 2.39 nM and 2.56 nM
Kd [7]: 0.833 nM and 0.96 nM

B1: hDARC-Fc (human DARC M1-P63, human IgG1 Fc fusion) (Fc fusion, UniProt Q16570-1 1-63, looked up)
chain: MGNCLHRAELSPSTENSSQLDFEDVWNSSYGVNDSFPDGDYGANLEAAAPCHSCNLLDDSALP
notes: Duffy antigen/receptor for chemokines (DARC), human, NP_002027, region expressed M1-P63; also called human DARC-Fc; source: HEK293-EBNA1 cells, transiently transfected, purified from culture supernatant (HiTrap Protein G HP)
Kd [8]: 3 nM and 2.39 nM

B2: human DARC-Fc (1-63 aa) (Fc fusion, UniProt Q16570 1-63, looked up)
chain: MGNCLHRAELSPSTENSSQLDFEDVWNSSYGVNDSFPDGDYGANLEAAAPCHSCNLLDDSALP
notes: Duffy antigen/receptor for chemokines (DARC), human, residues 1-63; also called hDARC; source: HEK293-EBNA1 (HEK293E), transiently transfected, purified from culture supernatant (Protein G)
Kd [9]: 2.7 ± 0.43 nM
